The values that follow come from the NTF2 design screens of Basanta et al. (2020).

The nature of the series: protease stability score; higher = more stable; yeast display proteolysis, trypsin and chymotrypsin.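 Further: relative to predicted unfolded state with 0 unfolded-like and 1 meaning tenfold more protease.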
In turn, “DEIEHEVERVVREWMRAYITGDEDTLQHLLDPHVLSVIDGVNIHGMENVTEYLRRHLEKIKNVQIEDMRIHRLDIQGNKLDLDTRLHITFNGVPEVLETRLILTKIDGKWWMHQVIIN” showed a protease stability score of 2.42.

The sequence “SEHEKFSEKYFQIWVRAVRTGDEDTLRELIDPDDRLDVNGQNFHGWEQVNEHLLHFIRKIKNVRIEVHLEHHEVQGDKIHLDMTLHLNVDGRETRHKTEIIARKIDGRWVFTEFRIK” yielded a protease stability score of 2.26. As to “TEDEENAERVARMFLKLLTTGDEHRLTELLDPNVIVEVGDKILIGREEALKLLRTWREKYGIDHVDVRHVEIEIVGDKVNVHMHGTIYVGDKKKDTRIHLHIRKINGRWMVEKVSIEEK”, the protease stability score was 2.68.

“SKEEKETEKAMEESLHIFETGDWKAFHDNVDPNVRLHIGDKDSHGRERATELYLTVVHHLGINHIQIDSFQINIQGDKVVINIDGTSHVGDKWSRIRVHIVERKIDGRWLISSFKMHIE” came in with a protease stability score of 1.07.

On to “HQDDDELKHFLELFIEQHETGDEHRLRKMADPRTRVEINGQEIHGMDQLVRHWLEFRKRMGVDHTHVILEHFHFQGDKVSARLRLIFIVGDKTFETDMNVIVVKVDGKWLIHEVSTR”, for which the protease stability score came out at 1.22. As for “SEFEKDSEHAARVLMHELHTGDFESLHELADPNDRNSLHIGDKHWFDHGRHWVRKWFERFKNATLIVEDIRLDVQGDKVRMEVDGHLNINGKHYRVHLIFILRKINGKWHVQQVDIHVD”, the figure is 2.41; as for “DEDEKASKVFVRLIKESIETGDEDTITHLADPNVRVIIGDKELHGWEELSRILHELRIHRFIVRREHVYDGRVQIDGRMDTEINGKKFITEVHVDAIKINGVWWLHLVEIR”, 1.38. “DRREEMEEIADELRRELIKTGDEHSTHRLADPHAKLHIGDKEYHGMEFMIRFFKILGVDHLRLQDIRVIDGQVHIHITSRVGDKRVHVEIISDKYNGRWRLREVIITID”: the protease stability score stood at 0.711. Regarding “DEHHRWLEQALHLWIHTILTGDEKVLHELFDPDVRLNVDGQDFHGRELMIKWFHDILRKFKNIRIKHIHIEDRRYYDGRLEIHTSVNVEFNGRPHEEKYRIIAFKIDGRWRLKEEEFH”, the protease stability score amounted to 1.8. As for “DEREHDLRRAVHIHRELMMTGDESNFLSYADPNTRLEVDGQEVVGREEVFKWITNVLSRHGVELKDIRVKTMDHQGNKLILHVEIRTRIGEKDTSVDFTLVVEKVNGRWVLHSLEIH”, the figure is 0.16; as for “SEDEEWVRRKVERWIRAFKTGNFEELRRNADPDTRIHINGVNFHGREDFEKFVTELMRRVKNARIDVHRLELQGEFIHSDETEDVNGVEHHVRFTYRKIDGRWSLHSIEFH”, 1.59. To “DEDEELMRRVVEIYIRALHTGDEDWMTHLADPHVKVDLLIDGRETELHGREWVVEIARKLGVKHSEVKDVHLVGDYIVIHLHLRIGDKEEEQDLIFLKVDGKWTLESSTIRRI” belongs 1.53. As for “DEDKEIADNFLKQLLRDIQTGDEDSFIERLDPNARLQVGDKHVHGMDEVLRTRREWVKLMGADHIHHVEVNHVHIQGDKVHMDVEVDVEFNGKRRRLKSHLILTKVDGQWIITMEIIK”, the figure is 1.08; as for “DEDEKEYTEMVLILSRMIETGDEDSLRRLMDPHAKIHINGKEIHGRELWVHILHEHKRKLGYDNIRVNVHRIWVHGDKIRVHGHLHIDGKEHEVHVHIEKINGRWVLRHDEIR”, 1.68. “DESEKSAFRFFEEMTKVLSTGDEETFLKMLDPNTRLEVGDKERHGREDFIRLMRHLWEVLGADHVHIHVKDIKVVNGRADIDTDLIIYVNGKTIHRDTQIIVLKIDGRWVLTSMEVE” came in with a protease stability score of 2.02. Sequence “DEDKEEAVRIIHEWSHAVFTGDFERELRLADPNVRLIINGRDFHGWHSLRELLNHMRLKTHHTDVKRSRSQGDFVEIDGLFNFTIHFNGRDLNVITDVKVVINKIDGRWKIESVHYE” registered a protease stability score of 1.18. As for “DEDDERSRLFLEEMMRTLLTGDERKSHELADPRVRINVNGRHIHGRELWNRFVHEARIRITHHRIHSRDIYNGRIELDVELRGDIHIGDKDIHLDTRIILFVLKVNGRWHLEIMEIV”, the figure is 1.25; as for “SEDEETIKRMVERWEKEFRTGDEKSYIENADPNYRLEVGDKTSIGRESVAKALDDLLRKRGVEIRDIKVHDVKIVGDFIHMDITFRGTQGDKEFDLKVILISKKVNGRWVPEHVHVH”, 0.789.
